Data on four molecules can be found in patent US20160201097A1, “Materials and Methods of Producing 7-Carbon Monomers” (INVISTA North America S.á.r.l., priority 2014, published 2016).

Holding throughout (assay type): biochemical
Data set [1] is described as follows: ω-transaminase activity, forward direction: pimelate semialdehyde to 7-aminoheptanoate (pyruvate formation by RP-HPLC). As to conditions: for acceptance of pimelate semialdehyde as substrate (conversion of L-alanine to pyruvate): cell free extract, 10 mM pimelate semialdehyde, 10 mM L-alanine, pH 7.5, 25° C., 4 h, against the empty vector control (FIG. 14); for reversibility of ω-transaminase activity: pimelate semialdehyde accepted, 7-aminoheptanoate synthesized: conclusion from reverse and forward assays of Example 1. The procedure:
(§1) A nucleotide sequence encoding an N-terminal His-tag was added to the nucleic acid sequences from Chromobacterium violaceum, Pseudomonas syringae, Rhodobacter sphaeroides, and Vibrio fluvialis encoding the ω-transaminases of SEQ ID NOs: 7, 9, 10 and 12, respectively (see FIG. 6) such that N-terminal HIS tagged ω-transaminases could be produced. Each of the resulting modified genes was cloned into a pET21a expression vector under control of the T7 promoter and each expression vector was transformed into a BL21[DE3] E. coli host. The resulting recombinant E. coli strains were cultivated at 37° C. in a 250 mL shake flask culture containing 50 mL LB media and antibiotic selection pressure, with shaking at 230 rpm. Each culture was induced overnight at 16° C. using 1 mM IPTG.
(§2) The pellet from each induced shake flask culture was harvested via centrifugation. Each pellet was resuspended and lysed via sonication. The cell debris was separated from the supernatant via centrifugation and the cell free extract was used immediately in enzyme activity assays.
Enzyme activity in the forward direction (i.e., pimelate semialdehyde to 7-aminoheptanoate) was confirmed for the transaminases of SEQ ID NO 9, SEQ ID NO 10 and SEQ ID NO 12. Enzyme activity assays were performed in a buffer composed of a final concentration of 50 mM HEPES buffer (pH=7.5), 10 mM pimelate semialdehyde, 10 mM L-alanine and 100 μM pyridoxyl 5′ phosphate. Each enzyme activity assay reaction was initiated by adding a cell free extract of the ω-transaminase gene product or the empty vector control to the assay buffer containing the pimelate semialdehyde and incubated at 25° C. for 4 h, with shaking at 250 rpm. The formation of pyruvate was quantified via RP-HPLC.

The nature of data set [2]: ω-transaminase activity, reverse direction: 7-aminoheptanoate to pimelate semialdehyde (L-alanine formation by RP-HPLC). Particulars: cell free extract, 10 mM 7-aminoheptanoate, 10 mM pyruvate, pH 7.5, 25° C., 4 h; against the empty vector control (FIG. 13). The method, then:
as §1, §2
Enzyme activity assays in the reverse direction (i.e., 7-aminoheptanoate to pimelate semialdehyde) were performed in a buffer composed of a final concentration of 50 mM HEPES buffer (pH=7.5), 10 mM 7-aminoheptanoate, 10 mM pyruvate and 100 μM pyridoxyl 5′ phosphate. Each enzyme activity assay reaction was initiated by adding cell free extract of the ω-transaminase gene product or the empty vector control to the assay buffer containing the 7-aminoheptanoate and incubated at 25° C. for 4 h, with shaking at 250 rpm. The formation of L-alanine from pyruvate was quantified via RP-HPLC.

A short description of data set [3]: ω-transaminase activity: 7-aminoheptanol to 7-oxoheptanol (L-alanine formation by RP-HPLC). As to conditions: for acceptance of 7-aminoheptanol as substrate (conversion of pyruvate to L-alanine): cell free extract, 10 mM 7-aminoheptanol, 10 mM pyruvate, pH 7.5, 25° C., 4 h, against the empty vector control (FIG. 17); for acceptance of 7-oxoheptanol as substrate forming 7-aminoheptanol: concluded from the reversibility of the ω-transaminase activity (Example 1). The method, then: A nucleotide sequence encoding an N-terminal His-tag was added to the Chromobacterium violaceum, Pseudomonas syringae and Rhodobacter sphaeroides nucleic acids encoding the ω-transaminases of SEQ ID NOs: 7, 9 and 10, respectively (see FIG. 6) such that N-terminal HIS tagged ω-transaminases could be produced. The modified genes were cloned into a pET21a expression vector under the T7 promoter. Each expression vector was transformed into a BL21[DE3] E. coli host. Each resulting recombinant E. coli strain were cultivated at 37° C. in a 250 mL shake flask culture containing 50 mL LB media and antibiotic selection pressure, with shaking at 230 rpm. Each culture was induced overnight at 16° C. using 1 mM IPTG.
as §2
Enzyme activity assays in the reverse direction (i.e., 7-aminoheptanol to 7-oxoheptanol) were performed in a buffer composed of a final concentration of 50 mM HEPES buffer (pH=7.5), 10 mM 7-aminoheptanol, 10 mM pyruvate, and […] pyridoxyl 5′ phosphate. Each enzyme activity assay reaction was initiated by adding cell free extract of the ω-transaminase gene product or the empty vector control to the assay buffer containing the 7-aminoheptanol and then incubated at 25° C. for 4 h, with shaking at 250 rpm. The formation of L-alanine was quantified via RP-HPLC.

Data set [4] can be described thus: carboxylate reductase activity: N7-acetyl-7-aminoheptanoate to N7-acetyl-7-aminoheptanal (NADPH consumption, A340). As to conditions: purified enzyme enhanced by sfp gene product, 2 mM N7-acetyl-7-aminoheptanoate, pH 7.5, room temperature, 20 min; against the empty vector control (FIG. 10). The method, then:
The activity of each of the N-terminal His-tagged carboxylate reductases of SEQ ID NOs: 3, 5, and 6 (see Examples 2 and 3, and FIG. 6) for converting N7-acetyl-7-aminoheptanoate to N7-acetyl-7-aminoheptanal was assayed in triplicate in a buffer composed of a final concentration of 50 mM HEPES buffer (pH=7.5), 2 mM N7-acetyl-7-aminoheptanoate, 10 mM MgCl2, 1 mM ATP, and 1 mM NADPH. The assays were initiated by adding purified carboxylate reductase and phosphopantetheine transferase or the empty vector control to the assay buffer containing the N7-acetyl-7-aminoheptanoate then incubated at room temperature for 20 min. The consumption of NADPH was monitored by absorbance at 340 nm.

On to “SEQ ID NO: 10: Rhodobacter sphaeroides ω-transaminase, N-terminal HIS tagged”, for which, in data set [1], the “acceptance of pimelate semialdehyde as substrate (conversion of L-alanine to pyruvate)” value (shortened to “acceptance of pimelate semialdehyde”) is given as “accepted pimelate semialdehyde as substrate”; the “reversibility of ω-transaminase activity: pimelate semialdehyde accepted, 7-aminoheptanoate synthesized” value (shortened to “reversibility of ω-transaminase activity”) was “accepted pimelate semialdehyde as substrate and synthesized 7-aminoheptanoate as a reaction product”. In addition, the “acceptance of 7-aminoheptanoate as substrate (conversion of pyruvate to L-alanine)” value (“acceptance of 7-aminoheptanoate” below) in data set [2] is recorded as “accepted 7-aminoheptanoate as substrate”. Moreover, in data set [3], the “acceptance of 7-aminoheptanol as substrate (conversion of pyruvate to L-alanine)” value is “accepted 7-aminoheptanol as substrate”; the “acceptance of 7-oxoheptanol as substrate forming 7-aminoheptanol” value was “accept 7-oxoheptanol as substrate and form 7-aminoheptanol”.

B1: SEQ ID NO: 12: Vibrio fluvialis ω-transaminase, N-terminal HIS tagged (protein, listed as Vibrio fluvialis)
chain: MNKPQSWEARAETYSLYGFTDMPSLHQRGTVVVTHGEGPYIVDVNGRRYLDANSGLWNMVAGFDHKGLIDAAKAQYERFPGYHAFFGRMSDQTVMLSEKLVEVSPFDSGRVFYTNSGSEANDTMVKMLWFLHAAEGKPQKRKILTRWNAYHGVTAVSASMTGKPYNSVFGLPLPGFVHLTCPHYWRYGEEGETEEQFVARLARELEETIQREGADTIAGFFAEPVMGAGGVIPPAKGYFQAILPILRKYDIPVISDEVICGFGRTGNTWGCVTYDFTPDAIISSKNLTAGFFPMGAVILGPELSKRLETAIEAIEEFPHGFTASGHPVGCAIALKAIDVVMNEGLAENVRRLAPRFEERLKHIAERPNIGEYRGIGFMWALEAVKDKASKTPFDGNLSVSERIANTCTDLGLICRPLGQSVVLCPPFILTEAQMDEMFDKLEKALDKVFAEVA
modifications: N-terminal His tag
notes: Vibrio fluvialis ω-transaminase, N-terminal HIS tagged
Take B1: in data set [1], the “acceptance of pimelate semialdehyde” value is “accepted pimelate semialdehyde as substrate”; the “reversibility of ω-transaminase activity” value is “accepted pimelate semialdehyde as substrate and synthesized 7-aminoheptanoate as a reaction product”. For the same molecule, the “acceptance of 7-aminoheptanoate” value in data set [2] was “accepted 7-aminoheptanoate as substrate”.

B2: SEQ ID NO: 9: Pseudomonas syringae ω-transaminase, N-terminal HIS tagged (protein, listed as Pseudomonas syringae)
chain: MSANNPQTLEWQALSSEHHLAPFSDYKQLKEKGPRIITRAEGVYLWDSEGNKILDGMSGLWCVAIGYGREELADAASKQMRELPYYNLFFQTAHPPVLELAKAISDIAPEGMNHVFFTGSGSEGNDTMLRMVRHYWALKGQPNKKTIISRVNGYHGSTVAGASLGGMTYMHEQGDLPIPGVVHIPQPYWFGEGGDMTPDEFGIWAAEQLEKKILELGVENVGAFIAEPIQGAGGVIVPPDSYWPKIKEILSRYDILFAADEVICGFGRTSEWFGSDFYGLRPDMMTIAKGLTSGYVPMGGLIVRDEIVAVLNEGGDFNHGFTYSGHPVAAAVALENIRILREEKIVERVRSETAPYLQKRLRELSDHPLVGEVRGVGLLGAIELVKDKTTRERYTDKGAGMICRTFCFDNGLIMRAVGDTMIIAPPLVISFAQIDELVEKARTCLDLTLAVLQG
modifications: N-terminal His tag
notes: Pseudomonas syringae ω-transaminase, N-terminal HIS tagged
Take B2: in data set [1], the “acceptance of pimelate semialdehyde” value is given as “accepted pimelate semialdehyde as substrate”; the “reversibility of ω-transaminase activity” value is “accepted pimelate semialdehyde as substrate and synthesized 7-aminoheptanoate as a reaction product”. Moreover, in data set [2], the “acceptance of 7-aminoheptanoate” value is recorded as “accepted 7-aminoheptanoate as substrate”. Besides, in data set [3], the “acceptance of 7-aminoheptanol as substrate (conversion of pyruvate to L-alanine)” value is “accepted 7-aminoheptanol as substrate”; the “acceptance of 7-oxoheptanol as substrate forming 7-aminoheptanol” value is “accept 7-oxoheptanol as substrate and form 7-aminoheptanol”.

B3: SEQ ID NO: 3: Mycobacterium smegmatis carboxylate reductase, N-terminal HIS tagged (protein, listed as Mycobacterium smegmatis)
chain: MTSDVHDATDGVTETALDDEQSTRRIAELYATDPEFAAAAPLPAVVDAAHKPGLRLAEILQTLFTGYGDRPALGYRARELATDEGGRTVTRLLPRFDTLTYAQVWSRVQAVAAALRHNFAQPIYPGDAVATIGFASPDYLTLDLVCAYLGLVSVPLQHNAPVSRLAPILAEVEPRILTVSAEYLDLAVESVRDVNSVSQLVVFDHHPEVDDHRDALARAREQLAGKGIAVTTLDAIADEGAGLPAEPIYTADHDQRLAMILYTSGSTGAPKGAMYTEAMVARLWTMSFITGDPTPVINVNFMPLNHLGGRIPISTAVQNGGTSYFVPESDMSTLFEDLALVRPTELGLVPRVADMLYQHHLATVDRLVTQGADELTAEKQAGAELREQVLGGRVITGFVSTAPLAAEMRAFLDITLGAHIVDGYGLTETGAVTRDGVIVRPPVIDYKLIDVPELGYFSTDKPYPRGELLVRSQTLTPGYYKRPEVTASVFDRDGYYHTGDVMAETAPDHLVYVDRRNNVLKLAQGEFVAVANLEAVFSGAALVRQIFVYGNSERSFLLAVVVPTPEALEQYDPAALKAALADSLQRTARDAELQSYEVPADFIVETEPFSAANGLLSGVGKLLRPNLKDRYGQRLEQMYADIAATQANQLRELRRAAATQPVIDTLTQAAATILGTGSEVASDAHFTDLGGDSLSALTLSNLLSDFFGFEVPVGTIVNPATNLAQLAQHIEAQRTAGDRRPSFTTVHGADATEIRASELTLDKFIDAETLRAAPGLPKVTTEPRTVLLSGANGWLGRFLTLQWLERLAPVGGTLITIVRGRDDAAARARLTQAYDTDPELSRRFAELADRHLRVVAGDIGDPNLGLTPEIWHRLAAEVDLVVHPAALVNHVLPYRQLFGPNVVGTAEVIKLALTERIKPVTYLSTVSVAMGIPDFEEDGDIRTVSPVRPLDGGYANGYGNSKWAGEVLLREAHDLCGLPVATFRSDMILAHPRYRGQVNVPDMFTRLLLSLLITGVAPRSFYIGDGERPRAHYPGLTVDFVAEAVTTLGAQQREGYVSYDVMNPHDDGISLDVFVDWLIRAGHPIDRVDDYDDWVRRFETALTALPEKRRAQTVLPLLHAFRAPQAPLRGAPEPTEVFHAAVRTAKVGPGDIPHLDEALIDKYIRDLREFGLI
modifications: N-terminal His tag
notes: Mycobacterium smegmatis carboxylate reductase, N-terminal HIS tagged
As for B3, the “acceptance of N7-acetyl-7-aminoheptanoate as substrate (NADPH consumption)” value in data set [4] was “accepted N7-acetyl-7-aminoheptanoate as substrate”.
